Changes are numbered by the printed parent chain. In names and notes the source's numbering stands.
B1: CE115HA000 H35A (antibody, human IgG1, kappa, L234A L235A, N297A, name in Kabat numbering)
heavy: QVQLVESGGGVVQPGRSLRLSCAASGFTFSNAWMAWVRQAPGKGLEWVAQIKAKSNNYATYYAESVKGRFTISRDDSKNSLYLQMNSLKTEDTAVYYCRYVHYGAYYGVDAWGQGTTVTVSSASTKGPSVFPLAPSSKSTSGGTAALGCLVKDYFPEPVTVSWNSGALTSGVHTFPAVLQSSGLYSLSSVVTVPSSSLGTQTYICNVNHKPSNTKVDKKVEPKSCDKTHTCPPCPAPEAAGGPSVFLFPPKPKDTLMISRTPEVTCVVVDVSHEDPEVKFNWYVDGVEVHNAKTKPREEQYASTYRVVSVLTVLHQDWLNGKEYKCKVSNKALPAPIEKTISKAKGQPREPQVYTLPPSRCELTKNQVSLSCAVKGFYPSDIAVEWESNGQPENNYKTTPPVLDSDGSFFLVSKLTVDKSRWQQGNVFSCSVMHEALHNHYTQKSLSLSPDYKDDDDK
chain: EPKSSDKTHTCPPCPAPELLGGPSVFLFPPKPKDTLMISRTPEVTCVVVDVSHEDPEVKFNWYVDGVEVHNAKTKPREEQYNSTYRVVSVLTVLHQDWLNGKEYKCKVSNKALPAPIEKTISKAKGQPREPQVCTLPPSRDELTKNQVSLWCLVKGFYPSDIAVEWESNGQPENNYKTTPPVLDSDGSFFLYSKLTVDKSRWQQGNVFSCSVMHEALHNRYTQKSLSLSP
light: DIVMTQSPLSLPVTPGEPASISCRSSQSLVHSNRNTYLHWYQQKPGQAPRLLIYKVSNRFSGVPDRFSGSGSGTDFTLKISRVEAEDVGVYYCGQGTQVPYTFGQGTKLEIKRTVAAPSVFIFPPSDEQLKSGTASVVCLLNNFYPREAKVQWKVDNALQSGNSQESVTEQDSKDSTYSLSSTLTLSKADYEKHKVYACEVTHQGLSSPVTKSFNRGEC
notes: one-arm antibody
B2: CE115HA000 A32Y (antibody, human IgG1, kappa, L234A L235A, N297A, name in Kabat numbering)
heavy: B1 heavy with A32Y, A35H
chain: B1 chain
light: B1 light
notes: one-arm antibody
B3: CE115HA000 A52aD (antibody, human IgG1, kappa, L234A L235A, N297A, name in Kabat numbering)
heavy: B1 heavy with A35H, A53D
chain: B1 chain
light: B1 light
notes: one-arm antibody
B4: CE115HA000 A52aE (antibody, human IgG1, kappa, L234A L235A, N297A, name in Kabat numbering)
heavy: B1 heavy with A35H, A53E
chain: B1 chain
light: B1 light
notes: one-arm antibody
B5: CE115HA000 A52aG (antibody, human IgG1, kappa, L234A L235A, N297A, name in Kabat numbering)
heavy: B1 heavy with A35H, A53G
chain: B1 chain
light: B1 light
notes: one-arm antibody
B6: CE115HA000 A52aP (antibody, human IgG1, kappa, L234A L235A, N297A, name in Kabat numbering)
heavy: B1 heavy with A35H, A53P
chain: B1 chain
light: B1 light
notes: one-arm antibody
B7: CE115HA000 A52aS (antibody, human IgG1, kappa, L234A L235A, N297A, name in Kabat numbering)
heavy: B1 heavy with A35H, A53S
chain: B1 chain
light: B1 light
notes: one-arm antibody
B8: CE115HA000 A52aV (antibody, human IgG1, kappa, L234A L235A, N297A, name in Kabat numbering)
heavy: B1 heavy with A35H, A53V
chain: B1 chain
light: B1 light
notes: one-arm antibody
B9: CE115HA000 A52aY (antibody, human IgG1, kappa, L234A L235A, N297A, name in Kabat numbering)
heavy: B1 heavy with A35H, A53Y
chain: B1 chain
light: B1 light
notes: one-arm antibody
B10: CE115HA000 A56D (antibody, human IgG1, kappa, L234A L235A, N297A, name in Kabat numbering)
heavy: B1 heavy with A35H, A59D
chain: B1 chain
light: B1 light
notes: one-arm antibody
B11: CE115HA000 A56G (antibody, human IgG1, kappa, L234A L235A, N297A, name in Kabat numbering)
heavy: B1 heavy with A35H, A59G
chain: B1 chain
light: B1 light
notes: one-arm antibody
B12: CE115HA000 A56K (antibody, human IgG1, kappa, L234A L235A, N297A, name in Kabat numbering)
heavy: B1 heavy with A35H, A59K
chain: B1 chain
light: B1 light
notes: one-arm antibody
B13: CE115HA000 A56L (antibody, human IgG1, kappa, L234A L235A, N297A, name in Kabat numbering)
heavy: B1 heavy with A35H, A59L
chain: B1 chain
light: B1 light
notes: one-arm antibody
B14: CE115HA000 A56N (antibody, human IgG1, kappa, L234A L235A, N297A, name in Kabat numbering)
heavy: B1 heavy with A35H, A59N
chain: B1 chain
light: B1 light
notes: one-arm antibody
B15: CE115HA000 A56Q (antibody, human IgG1, kappa, L234A L235A, N297A, name in Kabat numbering)
heavy: B1 heavy with A35H, A59Q
chain: B1 chain
light: B1 light
notes: one-arm antibody
B16: CE115HA000 A56Y (antibody, human IgG1, kappa, L234A L235A, N297A, name in Kabat numbering)
heavy: B1 heavy with A35H, A59Y
chain: B1 chain
light: B1 light
notes: one-arm antibody
B17: CE115HA000 A60D (antibody, human IgG1, kappa, L234A L235A, N297A, name in Kabat numbering)
heavy: B1 heavy with A35H, A63D
chain: B1 chain
light: B1 light
notes: one-arm antibody
B18: CE115HA000 A60E (antibody, human IgG1, kappa, L234A L235A, N297A, name in Kabat numbering)
heavy: B1 heavy with A35H, A63E
chain: B1 chain
light: B1 light
notes: one-arm antibody
B19: CE115HA000 A99D (antibody, human IgG1, kappa, L234A L235A, N297A, name in Kabat numbering)
heavy: B1 heavy with A35H, A105D
chain: B1 chain
light: B1 light
notes: one-arm antibody
B20: CE115HA000 A99F (antibody, human IgG1, kappa, L234A L235A, N297A, name in Kabat numbering)
heavy: B1 heavy with A35H, A105F
chain: B1 chain
light: B1 light
notes: one-arm antibody
B21: CE115HA000 Y100Q one-arm antibody (antibody, human IgG1, kappa, L234A L235A, N297A, name in Kabat numbering)
heavy: B1 heavy with A35H, Y106Q
chain: B1 chain
light: B1 light
B22: CE115HA000 Y100S one-arm antibody (antibody, human IgG1, kappa, L234A L235A, N297A, name in Kabat numbering)
heavy: B1 heavy with A35H, Y106S
chain: B1 chain
light: B1 light
B23: CE115HA000 Y100V one-arm antibody (antibody, human IgG1, kappa, L234A L235A, N297A, name in Kabat numbering)
heavy: B1 heavy with A35H, Y106V
chain: B1 chain
light: B1 light
B24: CE115HA000 Y100W one-arm antibody (antibody, human IgG1, kappa, L234A L235A, N297A, name in Kabat numbering)
heavy: B1 heavy with A35H, Y106W
chain: B1 chain
light: B1 light
B25: CE115HA000 Y100aA one-arm antibody (antibody, human IgG1, kappa, L234A L235A, N297A, name in Kabat numbering)
heavy: B1 heavy with A35H, Y107A
chain: B1 chain
light: B1 light
B26: CE115HA000 Y100aD one-arm antibody (antibody, human IgG1, kappa, L234A L235A, N297A, name in Kabat numbering)
heavy: B1 heavy with A35H, Y107D
chain: B1 chain
light: B1 light
B27: CE115HA000 Y100aF one-arm antibody (antibody, human IgG1, kappa, L234A L235A, N297A, name in Kabat numbering)
heavy: B1 heavy with A35H, Y107F
chain: B1 chain
light: B1 light
B28: CE115HA000 Y100aG one-arm antibody (antibody, human IgG1, kappa, L234A L235A, N297A, name in Kabat numbering)
heavy: B1 heavy with A35H, Y107G
chain: B1 chain
light: B1 light
B29: CE115HA000 Y100aK one-arm antibody (antibody, human IgG1, kappa, L234A L235A, N297A, name in Kabat numbering)
heavy: B1 heavy with A35H, Y107K
chain: B1 chain
light: B1 light
B30: CE115HA000 Y100aL one-arm antibody (antibody, human IgG1, kappa, L234A L235A, N297A, name in Kabat numbering)
heavy: B1 heavy with A35H, Y107L
chain: B1 chain
light: B1 light
B31: CE115HA000 Y100aQ one-arm antibody (antibody, human IgG1, kappa, L234A L235A, N297A, name in Kabat numbering)
heavy: B1 heavy with A35H, Y107Q
chain: B1 chain
light: B1 light
B32: CE115HA000 Y100aS one-arm antibody (antibody, human IgG1, kappa, L234A L235A, N297A, name in Kabat numbering)
heavy: B1 heavy with A35H, Y107S
chain: B1 chain
light: B1 light

Biological target: T1, CD3 epsilon homodimer protein (UniProt P07766 23-126)
T1 construct: also called CD3 (CD3 epsilon)
Assay: SPR, CD3 epsilon homodimer on chip, one-arm antibody as analyte;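 note: surface plasmon resonance at 25 °C with CD3 epsilon homodimer amine-coupled to a CM4 sensor chip, antibody injected as analyte, HBS-EP+ as running buffer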
T1 sequence (P07766 23-126): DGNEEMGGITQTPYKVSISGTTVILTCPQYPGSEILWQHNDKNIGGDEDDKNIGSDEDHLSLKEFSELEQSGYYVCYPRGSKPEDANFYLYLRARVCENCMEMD

How did the “KD ratio (KD of CE115HA000/KD of altered form)” value (“KD ratio” for short) turn out when B1 was run?
The value was 25.

How did the “KD ratio” value turn out when B2 was run?
Its value is 2.11.

B3 was tested. Which “KD ratio” value did it give?
Its value is 1.35.

How did the “KD ratio” value turn out when B4 was run?
Its value is 0.89.

How did the “KD ratio” value turn out when B5 was run?
The value was 0.61.

For B6, which “KD ratio” value is on record?
The value was 5.

B7 was tested. Which “KD ratio” value did it give?
The value was 0.82.

Which “KD ratio” value does the source give for B8 here?
Its value is 0.95.

With B9 as the binder, how does the “KD ratio” value read?
The value was 7.71.

For B10, which “KD ratio” value is on record?
The value was 0.71.

Which “KD ratio” value does the source give for B11 here?
Its value is 0.59.

For B12, which “KD ratio” value is on record?
Its value is 1.32.

Which “KD ratio” value does the source give for B13 here?
Its value is 0.77.

How did the “KD ratio” value turn out when B14 was run?
Its value is 0.84.

With B15 as the binder, how does the “KD ratio” value read?
Its value is 0.74.

With B16 as the binder, how does the “KD ratio” value read?
Its value is 0.63.

With B17 as the binder, how does the “KD ratio” value read?
Its value is 0.94.

For B18, which “KD ratio” value is on record?
Its value is 0.88.

With B19 as the binder, how does the “KD ratio” value read?
The value was 1.03.

For B20, which “KD ratio” value is on record?
Its value is 1.15.

Biological target: T2, CD3 epsilon homodimer protein (UniProt P07766 23-126)
T2 construct: immobilized on Sensor chip CM4 by amine coupling; also called CD3 (CD3 epsilon)
Assay: SPR (Biacore T200), CD3 epsilon homodimer on CM4 chip, one-arm antibody as analyte, 25 C;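 note: homodimer attached to the sensor surface via amine coupling, HBS-EP+ used as running buffer during binding runs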
T2 sequence (P07766 23-126): as above

For B21, which “ratio of amounts bound (altered form / CE115HA000)” value is on record?
Its value is 0.8.

For B22, which “ratio of amounts bound (altered form / CE115HA000)” value is on record?
Its value is 0.81.

How did the “ratio of amounts bound (altered form / CE115HA000)” value turn out when B23 was run?
The value was 0.6.

How did the “ratio of amounts bound (altered form / CE115HA000)” value turn out when B24 was run?
Its value is 1.03.

With B25 as the binder, how does the “ratio of amounts bound (altered form / CE115HA000)” value read?
Its value is 0.62.

For B26, which “ratio of amounts bound (altered form / CE115HA000)” value is on record?
The value was 0.31.

For B27, which “ratio of amounts bound (altered form / CE115HA000)” value is on record?
Its value is 0.87.

Which “ratio of amounts bound (altered form / CE115HA000)” value does the source give for B28 here?
Its value is 1.23.

B29 was tested. Which “ratio of amounts bound (altered form / CE115HA000)” value did it give?
Its value is 0.9.

Which “ratio of amounts bound (altered form / CE115HA000)” value does the source give for B30 here?
Its value is 0.48.

B31 was tested. Which “ratio of amounts bound (altered form / CE115HA000)” value did it give?
The value was 0.56.

With B32 as the binder, how does the “ratio of amounts bound (altered form / CE115HA000)” value read?
The value was 0.64.

— patent US20210388087A1 (Chugai, published 2021)
